# Test results as given in patent US8722850B2, “Self-assembling peptides and their use in the formation of hydrogels” (Universita' Degli Studi di Milano Bicocca, priority 2010, dated 2014).
# Entries after “also recorded” stand apart in the source; their conditions may differ. The star is where a group is joined. Biotin = O=C1N[C@H]2[C@H](CS[C@H]2CCCCC(=O)*)N1
# Key:
# [1] = Macro-scale scaffold formation upon exposure to PBS / neutral pH buffer; assay type: physicochemical; conditions: upon exposure to PBS (1×) / neutral pH buffer
# Excerpt: The tested peptides solutions appearance ranged from peptides giving clear liquid is solutions (e.g. 4, B15, B19, B25, B28, 30) to samples which become opaque in 1 to 7 days after dissolution (e.g. B3, B17, B22, B24, B27, 31) as shown in FIG. 2a (I). Most of the liquid solutions increased in viscosity over the first week after dissolution, however after ten days in water no appreciable changes happened at the macroscale.
# (§1) Nonetheless, keeping constant the observation time, the storage moduli of peptide solutions previously dissolved (the day before) at 3% w/v were measured. Measurements were obtained of these peptide solutions, further diluted to 1% w/v at the same day of the experiment (unless otherwise specified), and, after addition of PBS, of the formed scaffolds.
# [2] = system: human Neural Stem Cells (hNSCs); assay: Phase contrast imaging of hNSC morphology on scaffolds; assay type: cell-based; conditions: 7 days in vitro
# Description: In vitro tests were performed following a previously adopted methodology (5). Briefly, cells (at a concentration of 6×10^4 cells/cm^2) were seeded on the top-surface of each assembled scaffold previously assembled into 96 multiwells. Initially, cells were cultured with basal medium supplemented with βFGF (10 ng/ml), added to enhance neuronal progeny differentiation. At 3 days in vitro (DIV), βFGF medium was replaced with Leukemia Inhibitory Factor (LIF, Chemicon) (20 ng/ml) and Brain Derived Neurotrophic Factor (BDNF, Peprotech) (20 ng/ml). Fresh medium was added every three days. Positive and negative controls consisted of CULTREX-BME® substrate (R&D systems) (1:100 dilution in basal medium) and untreated bottom well surfaces respectively.
# To assess the potential of the proposed SAPs for cell cultures and, more generally, for regenerative medicine, a two-dimensional cell culture protocol already developed for RADA16-I-like peptides was adapted (5). Briefly, human Neural Stem Cells (hNSCs), mechanically dissociated 1 day before plating, were seeded and cultured for one week in vitro over self-assembled scaffolds of B3, 4, B15, B17, B19, B22, B24, B25, B27, B28, 30, 31 and over non-coated tissue culture plastic wells (negative control).
# [3] = Self-healing tests of assembled scaffolds after mechanical rupture; assay type: physicochemical; conditions: recovery of scaffold stiffness after mechanical rupture
# Description: (§2) Rheological properties were determined for the peptides of the invention, using a controlled stress TA Instruments AR-2000ex rheometer (TAInstruments). A cone-and-plate geometry (acrylic cone diameter, 20 mm; angle, 1°; truncation gap 34 μm) was used. All measurements were obtained at a constant monitored temperature of 25° C. Preliminary strain sweeps were performed for each sample to define the linear viscoelastic region, thus ensuring that moduli were independent of strain. Time sweeps, after addition of PBS (1×) were recorded at constant angular frequency (ω=1 Hz). Frequency sweeps, both for peptide water solutions and for self-assembled scaffolds, were performed with the instrument in oscillatory mode at controlled strain of 1%. Final: onset point of rupture was calculated by linear interpolation and subsequent determination of the intersection of the G′ modes in the linear region and at material rupture respectively. G′ values were averaged in the 1-100 Hz region and between n=3 independent replicates. During self-healing tests the self-assembled scaffold was torn by applying a strain sweep (0.01%-1000% strain range) at 1 Hz oscillatory frequency. G′ values were is recorded in frequency sweep mode (at 1% strain) or, in time sweep mode (at 1 Hz and at 1% strain), before and after the strain sweep step, subsequent observations were performed every half hour or, in case of time sweep test, every 30 seconds. In all of the SAPs the difference between the storage moduli measured before and after PBS addition spanned from two to four orders of magnitude, proving the dramatic biomechanical changes taking place during scaffold gelation. Peptide B3 (1%) yielded a solid stiff scaffold (G′=2917 Pa), supporting the idea that ionic charges may screen the electrostatic repulsions given by positively charged lysine residues and speed up the spontaneous ongoing self-assembling process, on its turn giving an already viscous (G′=67 Pa) and opaque solution at day 1. Among the peptides giving soft scaffold (100 Pa-1000 Pa range) peptides 4, B19, B25, B28 and 30 were included. On the opposite side, SAPs yielding solid stiff scaffolds are B15, B22, B24, B27 and 31 (5000 Pa-9000 Pa range).
# Solid scaffolds were obtained via addition of PBS (1×) in a cone-and-plate rheometer; we measured the storage modulus, the samples were subjected to a strain sweep (0.01% to 1000%) until and far beyond rupture occurred (i.e. is monitoring the sudden drop of G′ value). Samples were then left in place (keeping them hydrated with PBS) and their G′ were measured every 30 minutes via frequency sweep tests in the range of 0.1 Hz to 60 Hz. As a negative control KLD-12, a well-known SAP, was tested (4, 6). […] In FIG. 6b peptide B25 (3% w/v concentration) was assessed for self-healing in a time sweep mode, every 30 seconds, at 1 Hz and at 1% strain. Values of G′ recovered after 100 minutes (1000 Pa) and steadily plateaued over time. For peptides B3, B22, B25 and B27 full recovery was obtained at different time intervals after rupture, ranging from 60′ to 240′. Similar results were confirmed by multiple independent experiments, but at different time ranges, for all of the self-assembling peptides except for B19 and B28.
# Samples were checked for rupture by tilting. After a maximum of four hours all of the samples returned to their solidified gel appearance. This healing could be repeated at will.
# [4] = Rheological tests (storage modulus G′, cone-and-plate rheometer); assay type: physicochemical
# Description: as §2
# The mechanical properties of the synthesized peptides were tested with a cone-and-plate rheometer. Firstly, the G′ dependence of peptide water solutions on concentration increments, and consequently aggregation kinetics, was assessed as shown in FIG. 2b.
# as §1
Substance,solid scaffold / hydrogel formation [1],also measured
Ac-F-GGG-AFASTKT-GIKVAV-CONH2 (Ac-FGGGAFASTKTGIKVAV-NH2) [compound 59],yielded solid scaffolds,–
Ac-F-GGG-AFSSTKT-CONH2 (Ac-FGGGAFSSTKT-NH2) [compound 61],yielded solid scaffolds,–
Ac-FGGG-PFSSTKT-CONH2 (Ac-FGGGPFSSTKT-NH2) [compound 37],yielded solid scaffolds,–
"Ac-GGGPFSSTKT-CONH2 (Ac-GGGPFSSTKT-NH2) [peptide 2, biotin-deleted version of B3 that formed no scaffold]",prevented any scaffold formation,–
Ac-WGGGAFASTKT-CONH2 (Ac-WGGGAFASTKT-NH2) [compound 30],yielded solid scaffolds,cell morphology / degree of spreading [2]: single spherical cells
Ac-Y-GGG-PFSSTKT-CONH2 (Ac-YGGGPFSSTKT-NH2) [peptide 60],yielded solid scaffolds,–
Biot-GGGGGPFSSTKT-CONH2 (Biotin-GGGGGPFSSTKT-NH2; SMILES C[C@@H](O)[C@H](NC(=O)[C@H](CCCCN)NC(=O)[C@@H](NC(=O)[C@H](CO)NC(=O)[C@H](CO)NC(=O)[C@H](Cc1ccccc1)NC(=O)[C@@H]1CCCN1C(=O)CNC(=O)CNC(=O)CNC(=O)CNC(=O)CNC(=O)CCCC[C@@H]1SC[C@@H]2NC(=O)N[C@@H]21)[C@@H](C)O)C(N)=O) [peptide B25],yielded solid scaffolds,self-healing property [3]: self-healing property has been seen
Biot-GGGKFSSTPT-CONH2 (Biotin-GGGKFSSTPT-NH2; SMILES C[C@@H](O)[C@H](NC(=O)[C@@H]1CCCN1C(=O)[C@@H](NC(=O)[C@H](CO)NC(=O)[C@H](CO)NC(=O)[C@H](Cc1ccccc1)NC(=O)[C@H](CCCCN)NC(=O)CNC(=O)CNC(=O)CNC(=O)CCCC[C@@H]1SC[C@@H]2NC(=O)N[C@@H]21)[C@@H](C)O)C(N)=O) [B64],yielded solid scaffolds; also recorded: self-assembled giving a hydrogel upon exposure to PBS,–
Biot-GGGPFSETKT-CONH2 (Biotin-GGGPFSETKT-NH2; SMILES C[C@@H](O)[C@H](NC(=O)[C@H](CCCCN)NC(=O)[C@@H](NC(=O)[C@H](CCC(=O)O)NC(=O)[C@H](CO)NC(=O)[C@H](Cc1ccccc1)NC(=O)[C@@H]1CCCN1C(=O)CNC(=O)CNC(=O)CNC(=O)CCCC[C@@H]1SC[C@@H]2NC(=O)N[C@@H]21)[C@@H](C)O)C(N)=O) [peptide B17],yielded solid scaffolds,self-healing property [3]: self-healing property has been seen; cell morphology / degree of spreading [2]: proliferated cell clusters
Biot-GGGPFSSKTT-CONH2 (Biotin-GGGPFSSKTT-NH2; SMILES C[C@@H](O)[C@H](NC(=O)[C@@H](NC(=O)[C@H](CCCCN)NC(=O)[C@H](CO)NC(=O)[C@H](CO)NC(=O)[C@H](Cc1ccccc1)NC(=O)[C@@H]1CCCN1C(=O)CNC(=O)CNC(=O)CNC(=O)CCCC[C@@H]1SC[C@@H]2NC(=O)N[C@@H]21)[C@@H](C)O)C(N)=O) [B66],self-assembled giving a hydrogel upon exposure to PBS,–
Biot-GGGPFSSTKT-CONH2 (Biotin-GGGPFSSTKT-NH2; SMILES C[C@@H](O)[C@H](NC(=O)[C@H](CCCCN)NC(=O)[C@@H](NC(=O)[C@H](CO)NC(=O)[C@H](CO)NC(=O)[C@H](Cc1ccccc1)NC(=O)[C@@H]1CCCN1C(=O)CNC(=O)CNC(=O)CNC(=O)CCCC[C@@H]1SC[C@@H]2NC(=O)N[C@@H]21)[C@@H](C)O)C(N)=O) [peptide B3],shifting to solid scaffold when exposed to neutral pH buffer; also recorded: yielded solid scaffolds,"self-healing property [3]: self-healing property has been seen; cell morphology / degree of spreading [2]: branched cells; storage modulus G′ of assembled scaffold (G′ post-assembling) ([4]; after PBS (1×) addition, averaged in 1-100 Hz range, 25° C., B3 at 1%): 2917 Pa; time for G′ of peptide solution to reach a plateau ([4]; dissolved at 3% concentration in water): 2 days; storage modulus G′ of peptide solution (pre-assembling) ([4]; water solution at day 1, 1%, before PBS): 67 Pa"
Biot-GGGPFSSTTK-CONH2 (Biotin-GGGPFSSTTK-NH2; SMILES C[C@@H](O)[C@H](NC(=O)[C@H](CO)NC(=O)[C@H](CO)NC(=O)[C@H](Cc1ccccc1)NC(=O)[C@@H]1CCCN1C(=O)CNC(=O)CNC(=O)CNC(=O)CCCC[C@@H]1SC[C@@H]2NC(=O)N[C@@H]21)C(=O)N[C@H](C(=O)N[C@@H](CCCCN)C(N)=O)[C@@H](C)O) [B67],self-assembled giving a hydrogel upon exposure to PBS,–
Biot-GGGPKSSTFT-CONH2 (Biotin-GGGPKSSTFT-NH2; SMILES C[C@@H](O)[C@H](NC(=O)[C@H](Cc1ccccc1)NC(=O)[C@@H](NC(=O)[C@H](CO)NC(=O)[C@H](CO)NC(=O)[C@H](CCCCN)NC(=O)[C@@H]1CCCN1C(=O)CNC(=O)CNC(=O)CNC(=O)CCCC[C@@H]1SC[C@@H]2NC(=O)N[C@@H]21)[C@@H](C)O)C(N)=O) [B65],yielded solid scaffolds; also recorded: self-assembled giving a hydrogel upon exposure to PBS,–
Biot-GGGPWSSTKT-CONH2 (Biotin-GGGPWSSTKT-NH2; SMILES C[C@@H](O)[C@H](NC(=O)[C@H](CCCCN)NC(=O)[C@@H](NC(=O)[C@H](CO)NC(=O)[C@H](CO)NC(=O)[C@H](Cc1c[nH]c2ccccc12)NC(=O)[C@@H]1CCCN1C(=O)CNC(=O)CNC(=O)CNC(=O)CCCC[C@@H]1SC[C@@H]2NC(=O)N[C@@H]21)[C@@H](C)O)C(N)=O) [B27],yielded solid scaffolds,self-healing property [3]: self-healing property has been seen
"Biot-PFSSTKT-CONH2 (Biotin-PFSSTKT-NH2; SMILES C[C@@H](O)[C@H](NC(=O)[C@H](CCCCN)NC(=O)[C@@H](NC(=O)[C@H](CO)NC(=O)[C@H](CO)NC(=O)[C@H](Cc1ccccc1)NC(=O)[C@@H]1CCCN1C(=O)CCCC[C@@H]1SC[C@@H]2NC(=O)N[C@@H]21)[C@@H](C)O)C(N)=O) [peptide B7, non-assembling control peptide]",not give a solid scaffold,–
Biotin-G-AFASTKT-CONH2 [B50],yielded solid scaffolds,–
Biotin-GGGAFASTKA-NH2 [B33],yielded solid scaffolds,–
Biotin-GGGAWASTKT-NH2 [B32],yielded solid scaffolds,–
Biotin-GGGGG-AFASTKT-CONH2 [B51],yielded solid scaffolds,–
Biotin-GGGPFSSTKTP-NH2 [B34],yielded solid scaffolds,–
